Source: article PMC10630410, “Functional dissection of PRC1 subunits RYBP and YAF2 during neural differentiation of embryonic stem cells” (Nature Communications, 2023)

Target: T1, GST-RING1B (mouse, UniProt Q9CQJ4 1-336)
T1 construct: RING1B (Ring1b), the coding region amplified from mouse cDNA, in pGEX-4T; also called pGEX-4T-mRing1b; source: E. coli BL21 (DE3), purified (glutathione agarose); not shown: GST, N-terminal, kept
T1 sequence (looked up): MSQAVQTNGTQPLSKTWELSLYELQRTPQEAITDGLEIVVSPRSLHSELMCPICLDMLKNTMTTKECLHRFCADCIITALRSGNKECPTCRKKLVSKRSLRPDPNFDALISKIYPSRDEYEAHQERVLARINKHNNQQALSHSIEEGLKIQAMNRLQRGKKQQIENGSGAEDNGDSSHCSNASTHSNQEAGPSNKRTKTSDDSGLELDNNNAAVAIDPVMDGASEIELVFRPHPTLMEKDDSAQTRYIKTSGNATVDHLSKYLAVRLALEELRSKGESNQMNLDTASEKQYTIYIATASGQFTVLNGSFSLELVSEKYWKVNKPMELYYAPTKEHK
Assay: pull-down; same mixture as a3: purified His-mYAF2-mCherry (0, 100, 300 ng) with 300 ng purified GST-RING1B in the presence of mESC extract, PBS, 4 °C; read out as loss of RYBP from GST-RING1B
Conditions: both partners purified

B1: His-mYAF2-mCherry (natural protein, mouse, UniProt Q99LW6 1-179, looked up)
chain: MGDKKSPTRPKRQPKPASDEGYWDCSVCTFRNSAEAFKCMMCDVRKGTSTRKPRPVSQLVAQQVTQQFVPPTQSKKEKKDRVEKDKSEKEAASKKNCHKKTRPRLKNVDRSSAQHLEVTVGDLTVIITDFKEKAKSAPASSAAGDQHSQGSCSSDSTERGVSRSSSPRGEASSLNGESH
notes: YAF2 (Yaf2), the coding region amplified from mouse cDNA, in pET-28a; also called His-YAF2; pET-28a-mYaf2-mCherry; source: E. coli BL21 (DE3), purified (Ni-NTA); not shown: His6, N-terminal, kept
  binding result: binds
